Measured values from patent EP4628097A1 (Innovent Biologics (Suzhou) Co., Ltd., dated 2025).

Key:
[1] = target: T1, human Ang2 (human, UniProt O15123 19-496, limits assumed); assay: ELISA, relative binding activity; final formula 40 mg/mL, 40 C, 2W
T1 construct: Bought proteins; also called hAng2-biotin; Ang2-Bio (Sino)
T1 sequence (looked up): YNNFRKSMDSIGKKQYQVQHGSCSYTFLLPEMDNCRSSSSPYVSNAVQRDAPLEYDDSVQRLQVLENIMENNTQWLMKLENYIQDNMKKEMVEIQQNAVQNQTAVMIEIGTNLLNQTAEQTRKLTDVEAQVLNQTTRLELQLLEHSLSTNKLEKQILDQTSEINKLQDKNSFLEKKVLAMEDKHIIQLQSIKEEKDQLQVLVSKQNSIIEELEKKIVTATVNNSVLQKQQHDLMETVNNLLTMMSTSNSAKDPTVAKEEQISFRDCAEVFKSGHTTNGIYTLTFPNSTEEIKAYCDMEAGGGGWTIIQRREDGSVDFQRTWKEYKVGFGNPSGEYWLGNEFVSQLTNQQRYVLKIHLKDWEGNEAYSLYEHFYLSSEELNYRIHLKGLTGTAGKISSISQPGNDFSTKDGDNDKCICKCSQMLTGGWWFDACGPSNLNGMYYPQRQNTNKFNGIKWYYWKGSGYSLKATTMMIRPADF

[2] = target: T2, human VEGF165 (human, UniProt P15692-4 27-191); assay: as above
T2 construct: all are put under this molecule; also called VEGF A; VEGFA
T2 sequence (P15692 other isoform, or with tags, fused parts or gaps limits assumed): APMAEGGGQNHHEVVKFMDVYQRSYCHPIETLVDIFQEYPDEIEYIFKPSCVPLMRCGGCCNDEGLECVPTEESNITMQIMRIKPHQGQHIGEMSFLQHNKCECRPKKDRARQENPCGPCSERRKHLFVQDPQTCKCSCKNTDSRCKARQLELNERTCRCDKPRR

[3] = target: T1, human Ang2; assay: ELISA, relative binding activity; IEX04-012 about 40 mg/mL in F7, 40 C, 0 weeks
[4] = target: T2, human VEGF165; assay: as above
[5] = target: T1, human Ang2; assay: ELISA, relative binding activity; IEX04-012 about 40 mg/mL in F8, 40 C, 2 weeks
[6] = target: T2, human VEGF165; assay: as above
[7] = target: T1, human Ang2; assay: ELISA, relative binding activity; IEX04-012 about 40 mg/mL in F6, 40 C, 1 week
[8] = target: T2, human VEGF165; assay: as above
[9] = target: T1, human Ang2; assay: ELISA, relative binding activity; IEX04-012 about 40 mg/mL in F9, 40 C, 1 week
[10] = target: T2, human VEGF165; assay: as above
[11] = target: T1, human Ang2; assay: ELISA, relative binding activity; 120 mg/mL formula, 2-8 C, 6M
[12] = target: T2, human VEGF165; assay: as above
[13] = target: T1, human Ang2; assay: ELISA, relative binding activity; IEX04-012 about 40 mg/mL in F7, 40 C, 1 week
[14] = target: T2, human VEGF165; assay: as above
[15] = target: T1, human Ang2; assay: ELISA, relative binding activity; IEX04-012 about 40 mg/mL in F5, 40 C, 0 weeks
[16] = target: T2, human VEGF165; assay: as above
[17] = target: T1, human Ang2; assay: ELISA, relative binding activity; IEX04-012 about 40 mg/mL in F9, 40 C, 2 weeks
[18] = target: T2, human VEGF165; assay: as above
[19] = target: T1, human Ang2; assay: ELISA, relative binding activity; IEX04-012 about 40 mg/mL in F1, 40 C, 2 weeks
[20] = target: T2, human VEGF165; assay: as above
[21] = target: T1, human Ang2; assay: ELISA, relative binding activity; IEX04-012 about 40 mg/mL in F8, 40 C, 0 weeks
[22] = target: T2, human VEGF165; assay: as above
[23] = target: T1, human Ang2; assay: ELISA, relative binding activity; IEX04-012 about 40 mg/mL in F10, 40 C, 2 weeks
[24] = target: T2, human VEGF165; assay: as above

B1: IEX04-012 (bispecific antibody)
chain: DIQLTQSPSSLSASVGDRVTITCSASQDISNYLNWYQQKPGKAPKVLIYFTSSLHSGVPSRFSGSGSGTDFTLTISSLQPEDFATYYCQQYSTVPWTFGCGTKVEIKGGGGSGGGGSGGGGSGGGGSEVQLVESGGGLVQPGGSLRLSCAASGYDFTHYGMNWVRQAPGKCLEWVGWINTYTGEPTYAADFKRRFTFSLDTSKSTAYLQMNSLRAEDTAVYYCAKYPYYYGTSHWYFDVWGQGTLVTVSSGGGGSGGGGSGGGGSEVQLLESGGGLVQPGGSLRLSCAASGFALDYYAIGWFRQAPGKGLEGVSCISSGEGSTYYADSVKGRFTISRDNSKNTVYLQMNSLRAEDTAVYYCATDSRGDDVACEGLRRNEYDYWGQGTLVTVSS
**Q.** How did the Relative binding Activity to Ang2 (ELISA, %) [1] turn out when B1 was run?
**A.** Its Relative binding Activity to Ang2 (ELISA, %) is 86%.

**Q.** What about the Relative binding Activity to VEGF A (ELISA, %) [2] of the same binder?
**A.** The Relative binding Activity to VEGF A (ELISA, %) was 91%.

**Q.** And the Relative binding Activity to Ang2 (ELISA, %) [3]?
**A.** Its Relative binding Activity to Ang2 (ELISA, %) is 100%.

**Q.** And the Relative binding Activity to VEGF (ELISA, %) [4]?
**A.** Its Relative binding Activity to VEGF (ELISA, %) is 100%.

**Q.** And the Relative binding Activity to Ang2 (ELISA, %) [5]?
**A.** Its Relative binding Activity to Ang2 (ELISA, %) is 91%.

**Q.** What about the Relative binding Activity to VEGF (ELISA, %) [6] of the same binder?
**A.** Its Relative binding Activity to VEGF (ELISA, %) is 102%.

**Q.** What about the Relative binding Activity to Ang2 (ELISA, %) [7] of the same binder?
**A.** Its Relative binding Activity to Ang2 (ELISA, %) is 96%.

**Q.** What about the Relative binding Activity to VEGF (ELISA, %) [8] of the same binder?
**A.** The Relative binding Activity to VEGF (ELISA, %) was 98%.

**Q.** And the Relative binding Activity to Ang2 (ELISA, %) [9]?
**A.** The Relative binding Activity to Ang2 (ELISA, %) was 96%.

**Q.** And the Relative binding Activity to VEGF (ELISA, %) [10]?
**A.** Its Relative binding Activity to VEGF (ELISA, %) is 97%.

**Q.** What about the Relative binding Activity to Ang2 (ELISA, %) [11] of the same binder?
**A.** The Relative binding Activity to Ang2 (ELISA, %) was 96%.

**Q.** And the Relative binding Activity to VEGF A (ELISA, %) [12]?
**A.** Its Relative binding Activity to VEGF A (ELISA, %) is 99%.

**Q.** And the Relative binding Activity to Ang2 (ELISA, %) [13]?
**A.** Its Relative binding Activity to Ang2 (ELISA, %) is 90%.

**Q.** What about the Relative binding Activity to VEGF (ELISA, %) [14] of the same binder?
**A.** Its Relative binding Activity to VEGF (ELISA, %) is 102%.

**Q.** What about the Relative binding Activity to Ang2 (ELISA, %) [15] of the same binder?
**A.** The Relative binding Activity to Ang2 (ELISA, %) was 100%.

**Q.** What about the Relative binding Activity to VEGF (ELISA, %) [16] of the same binder?
**A.** Its Relative binding Activity to VEGF (ELISA, %) is 100%.

**Q.** What about the Relative binding Activity to Ang2 (ELISA, %) [17] of the same binder?
**A.** The Relative binding Activity to Ang2 (ELISA, %) was 90%.

**Q.** And the Relative binding Activity to VEGF (ELISA, %) [18]?
**A.** The Relative binding Activity to VEGF (ELISA, %) was 99%.

**Q.** And the Relative binding Activity to Ang2 (ELISA, %) [19]?
**A.** The Relative binding Activity to Ang2 (ELISA, %) was 100%.

**Q.** What about the Relative binding Activity to VEGF (ELISA, %) [20] of the same binder?
**A.** The Relative binding Activity to VEGF (ELISA, %) was 101%.

**Q.** And the Relative binding Activity to Ang2 (ELISA, %) [21]?
**A.** The Relative binding Activity to Ang2 (ELISA, %) was 100%.

**Q.** And the Relative binding Activity to VEGF (ELISA, %) [22]?
**A.** The Relative binding Activity to VEGF (ELISA, %) was 100%.

**Q.** And the Relative binding Activity to Ang2 (ELISA, %) [23]?
**A.** Its Relative binding Activity to Ang2 (ELISA, %) is 99%.

**Q.** What about the Relative binding Activity to VEGF (ELISA, %) [24] of the same binder?
**A.** The Relative binding Activity to VEGF (ELISA, %) was 99%.
